In test [1] the target is T1, mouse SIGLEC15 on CHO-S-mSIGLEC15 cells (mouse).
T1 chain: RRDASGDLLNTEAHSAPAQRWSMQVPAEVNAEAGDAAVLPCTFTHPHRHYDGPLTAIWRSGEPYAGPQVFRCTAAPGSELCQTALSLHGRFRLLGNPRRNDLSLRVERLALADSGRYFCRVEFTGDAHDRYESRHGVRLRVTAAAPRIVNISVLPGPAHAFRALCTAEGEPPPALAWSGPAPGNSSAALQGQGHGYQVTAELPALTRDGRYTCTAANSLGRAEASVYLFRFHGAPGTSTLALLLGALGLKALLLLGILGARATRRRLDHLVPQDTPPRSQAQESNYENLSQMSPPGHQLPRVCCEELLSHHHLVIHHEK
In words: flow cytometry, CHO-S cells expressing the target. As to the method: (§1) CHO-S-hSIGLEC15 cells, CHO-S-mSIGLEC15 cells, CHO-S-fasSIGLEC15 cells or CHO-S-dSIGLEC15 cells were transferred to a 96-well plate at a density of 5×10⁴ cells/well respectively. Serially diluted sample anti-SIGLEC15 antibodies were added to the 96-well plate, and incubated at 4° C. for 30 min. Then, the cells were incubated with the secondary antibody anti-hIgG-Fc-Alex Flour 647 (RL1-H) (Jackson ImmunoResearch Laboratories, Inc., 109-606-170) at 4° C. in the dark for 15 minutes before flow cytometry analysis.

Test [2] has as its target T2, human SIGLEC15 on CHO-S-hSIGLEC15 cells (human, UniProt Q6ZMC9 20-328).
T2 sequence: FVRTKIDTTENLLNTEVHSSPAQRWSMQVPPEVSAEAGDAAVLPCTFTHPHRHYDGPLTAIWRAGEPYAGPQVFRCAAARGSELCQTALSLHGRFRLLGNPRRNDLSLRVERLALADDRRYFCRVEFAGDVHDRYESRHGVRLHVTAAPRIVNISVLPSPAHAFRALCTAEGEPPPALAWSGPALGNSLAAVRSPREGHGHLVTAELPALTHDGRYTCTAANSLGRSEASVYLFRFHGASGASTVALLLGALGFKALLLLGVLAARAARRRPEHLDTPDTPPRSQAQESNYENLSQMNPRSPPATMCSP
Kind of test: flow cytometry, CHO-S cells expressing the target. The method, then: as §1
(Flow cytometry measures light scatter and fluorescence of single cells or particles in a stream.)

The target of test [3] is T3, dog SIGLEC15 on CHO-S-dSIGLEC15 cells (dog).
T3 chain: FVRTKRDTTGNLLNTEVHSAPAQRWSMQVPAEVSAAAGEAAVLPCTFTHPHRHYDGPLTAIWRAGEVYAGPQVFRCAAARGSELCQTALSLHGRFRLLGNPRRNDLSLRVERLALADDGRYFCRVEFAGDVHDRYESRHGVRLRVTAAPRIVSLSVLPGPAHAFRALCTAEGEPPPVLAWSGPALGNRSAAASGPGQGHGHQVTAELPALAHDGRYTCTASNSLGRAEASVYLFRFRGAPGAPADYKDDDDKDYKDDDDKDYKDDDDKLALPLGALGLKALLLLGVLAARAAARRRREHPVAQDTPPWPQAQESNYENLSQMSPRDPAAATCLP
In words: flow cytometry, CHO-S cells expressing the target. The method, then:
as §1

Test [4] deals with T4, hSIGLEC15 protein captured in the epitope analysis of Example 4 (human, UniProt Q6ZMC9 20-263, limits assumed).
T4 sequence: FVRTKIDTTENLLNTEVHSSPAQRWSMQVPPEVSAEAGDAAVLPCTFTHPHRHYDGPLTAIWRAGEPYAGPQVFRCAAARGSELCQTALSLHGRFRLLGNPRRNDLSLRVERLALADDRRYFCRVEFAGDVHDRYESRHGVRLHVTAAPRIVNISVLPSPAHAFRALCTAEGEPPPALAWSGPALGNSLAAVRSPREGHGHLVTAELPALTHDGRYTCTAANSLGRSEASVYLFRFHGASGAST
Kind of test: BLI pairwise binning on captured hSIGLEC15, 200 nM each antibody; competitor 10C9. As to the method:
(§2) Relative positions of target protein epitope between a pair of purified anti-SIGLEC15 antibodies were analyzed by Biolayer Interferometry (BLI) using ForteBio Octet system at 30° C. A total of 4 purified antibodies were used: 5G12, 10A7, 10C9 and 23F4.
(§3) 1×HBS-EP+ buffer (10 mM 4-(2-hydroxyethyl)-1-piperazineethanesulfonic acid (HEPES), 150 mM NaCl, 3 mM ethylenediaminetetraacetic acid (EDTA) and 0.05% P20, pH7.4) diluted from HBS-EP+ buffer (10×) was used as the running buffer throughout the experiment. About 100 RU of hSIGLEC15 protein was captured at a flow rate of 10 μL/min, and 200 nM of antibody was injected at a flow rate of 30 μL/min to bind the ligand. Another antibody was injected under the same conditions to determine whether the binding of different antibodies interfered with each other. The binding time was 300 s for each antibody.
(§4) The binding value of each antibody was obtained using Data Analysis HT 12.0. To quantify the interference of one antibody binding to another, a binding ratio was calculated to compare each pair of antibodies. The binding ratio is defined as the binding value of the second antibody (analyte 2), divided by the binding value of the first antibody (analyte 1). […] In general, antibody pairs that interfere with each other have the same or overlapping epitopes.

In test [5] the target is T4, hSIGLEC15 protein captured in the …. Kind of test: BLI pairwise binning on captured hSIGLEC15, 200 nM each antibody; competitor 23F4. The method, then:
as §2, §3, §4

Test [6] has the same target. In words: BLI pairwise binning on captured hSIGLEC15, 200 nM each antibody; competitor 5G12. As to the method:
as §2, §3, §4

For test [7] the target is unchanged. Kind of test: BLI pairwise binning on captured hSIGLEC15, 200 nM each antibody; competitor 10A7. The method, then:
as §2, §3, §4

B1: anti-SIGLEC15 antibody 10A7 (antibody, human IgG1, V domains shown)
VH: EVQLVQSGGGLVQPGGSLRLSCAASGFTFSNYEMNWVRQAPGKGLEWISYISNSGSTIYYADSVKGRFTISRDDAKNSLYLQMNSLRAEDTAVYYCAREDYDSSGYYWFDPWGQGTPVTVSS
VL: DIQLTQSPSSVSASVGDRVTITCRASQGISSWLAWYQQKPGKAPKLLIYAASSLQSGVPSRFSGSGSGTDFTLTINSLQPEDFATYYCQQTNSFPLTFGGGTKVEIK
In the case of B1, the entries for the “Percentage of Positive Cells” value in test [1], in test [2] and in test [3] were 38.5%, 17.9% and 22.8%, respectively. For the same molecule, the binding ratio in test [4] turned out to be 0.16; in test [5], 0.43; in test [6], 0.2; in test [7], 0.14.

B2: anti-SIGLEC15 antibody 10C9 (antibody, human IgG1, V domains shown)
VH: QVQLVQSGAEVKKPGATVKVSCKASGYTFTNYGFSWVRQAPGQGLEWMGWINTYNDNTNYAQKFQGRVTMTTDTSTSTAYMELRSLRSDDTAVYYCARDGLWFGELPHYFDYWGQGTLVTVSS
VL: DIQLTQSPLSSPVTLGQPASISCRSSQSLVNSDGETFLSWLQQRPGQPPRLLIYKISNRFSGVPDRFSGSGAGTDFTLKISRVEAEDVGVYYCMQATQFPHTFGQGTKLEIK
Turning to B2, the results for the “Percentage of Positive Cells” value in test [1], in test [2] and in test [3] were 29.3%, 16.3% and 37.3%, respectively. In addition, the binding ratio was 0.11 in test [4], 0.72 in test [5], 0.23 in test [6] and 0.11 in test [7].

B3: anti-SIGLEC15 antibody 23F4 (antibody, human IgG1, V domains shown)
VH: QVQLQQWGAGLLKPSETLSLTCAVYGGSFSGYFWSWIRQPPGKGLEWIGEINHSGSTNYNPSLKSRVTLSVDTSKNQFSLKLSSVTAADTAVYYCAREGDSSSWGNWFDPWGQGTLVTVSS
VL: EIVLTQSPGTLSLSPGERATLSCRASQSVSSSYLAWYQQKPGQAPRFLIYGASSRATGIPDRFSGSGSGTDFTLTISRLEPEDFAVYYCQQFGNSPLTFGGGTKVEIK
B3: the “Percentage of Positive Cells” value in test [1] stood at 40.5%; in test [2], 25.6%; in test [3], 24.6%. Also, the binding ratio is 0.62 in test [4], 0.07 in test [5], 0.48 in test [6] and 0.18 in test [7].

Source of the values: patent publication US20250361296A1 (BIOCYTOGEN PHARMACEUTICALS BEIJING, published 2025).
